Assay results from patent publication US20260184748A1, “COMPOSITIONS COMPRISING OCTADECANEUROPEPTIDES (ODN) AND SYNTHETIC DERIVATIVES THEREOF AND METHODS OF USE FOR MODULATION OF FOOD INTAKE, OBESITY, BODY WEIGHT, NAUSEA, AND EMESIS” (The Trustees of the University of Pennsylvania, priority 2022, published 2026).
Blank lines part the entries; values can stand above or below the substance they belong to.

What was measured:
Assay in all cases: cell-based or functional assay
BDKRB2 = BDKRB2 (UniProt P30411)
CCR2 = CCR2 (UniProt P41597)
CCR5 = CCR5 (UniProt P51681)
CCR1 = target: T1, CCR1 (UniProt P32246)
T1 sequence (looked up): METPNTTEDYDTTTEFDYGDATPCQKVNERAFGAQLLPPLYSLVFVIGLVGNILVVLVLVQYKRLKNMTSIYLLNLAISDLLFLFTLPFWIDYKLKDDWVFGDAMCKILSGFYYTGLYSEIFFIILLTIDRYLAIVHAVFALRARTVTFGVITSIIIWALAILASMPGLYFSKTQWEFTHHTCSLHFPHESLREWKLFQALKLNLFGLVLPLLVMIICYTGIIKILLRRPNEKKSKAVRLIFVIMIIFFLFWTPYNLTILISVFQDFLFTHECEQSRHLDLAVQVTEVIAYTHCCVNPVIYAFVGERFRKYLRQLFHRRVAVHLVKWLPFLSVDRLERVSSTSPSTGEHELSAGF

CCR3 = CCR3 (UniProt P51677)
CCR7 = CCR7 (UniProt P32248)
CCR6 = target: T2, CCR6 (UniProt P51684)
T2 sequence (looked up): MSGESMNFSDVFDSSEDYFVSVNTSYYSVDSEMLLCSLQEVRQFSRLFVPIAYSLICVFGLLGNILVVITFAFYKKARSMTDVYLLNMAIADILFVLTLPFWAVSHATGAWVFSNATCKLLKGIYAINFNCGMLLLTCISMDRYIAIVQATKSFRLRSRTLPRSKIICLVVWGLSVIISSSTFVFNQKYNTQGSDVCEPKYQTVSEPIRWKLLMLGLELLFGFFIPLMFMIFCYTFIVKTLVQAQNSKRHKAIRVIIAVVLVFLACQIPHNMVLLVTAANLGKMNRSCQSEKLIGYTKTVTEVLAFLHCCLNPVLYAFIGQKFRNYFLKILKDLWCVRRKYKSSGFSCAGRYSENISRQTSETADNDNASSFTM

CCR9 = CCR9 (UniProt P51686)
Chain of CCR9 (P51686 whole entry): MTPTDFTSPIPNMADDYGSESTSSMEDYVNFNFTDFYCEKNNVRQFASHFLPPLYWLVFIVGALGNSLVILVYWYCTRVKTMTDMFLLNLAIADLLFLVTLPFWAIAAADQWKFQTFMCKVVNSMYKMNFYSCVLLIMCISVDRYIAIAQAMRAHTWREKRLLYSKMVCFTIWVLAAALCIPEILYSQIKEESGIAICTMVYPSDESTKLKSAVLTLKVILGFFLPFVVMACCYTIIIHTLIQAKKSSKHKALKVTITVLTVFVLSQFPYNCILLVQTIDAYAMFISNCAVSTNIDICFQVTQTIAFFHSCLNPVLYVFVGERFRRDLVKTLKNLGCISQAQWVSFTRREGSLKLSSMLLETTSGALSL

CXCR1 = target: T3, CXCR1 (UniProt P25024)
T3 sequence (looked up): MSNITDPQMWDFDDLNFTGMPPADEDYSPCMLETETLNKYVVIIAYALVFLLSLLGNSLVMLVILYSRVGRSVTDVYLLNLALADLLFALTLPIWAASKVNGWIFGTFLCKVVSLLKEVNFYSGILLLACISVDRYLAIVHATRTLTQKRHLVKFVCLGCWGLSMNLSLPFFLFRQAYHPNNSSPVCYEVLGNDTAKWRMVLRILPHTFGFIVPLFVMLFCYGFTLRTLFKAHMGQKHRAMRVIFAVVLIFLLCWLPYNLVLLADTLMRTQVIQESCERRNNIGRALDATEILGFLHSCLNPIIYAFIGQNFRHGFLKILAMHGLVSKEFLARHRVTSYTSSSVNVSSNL

CXCR2 = CXCR2 (UniProt P25025)
Chain of CXCR2 (P25025 whole entry): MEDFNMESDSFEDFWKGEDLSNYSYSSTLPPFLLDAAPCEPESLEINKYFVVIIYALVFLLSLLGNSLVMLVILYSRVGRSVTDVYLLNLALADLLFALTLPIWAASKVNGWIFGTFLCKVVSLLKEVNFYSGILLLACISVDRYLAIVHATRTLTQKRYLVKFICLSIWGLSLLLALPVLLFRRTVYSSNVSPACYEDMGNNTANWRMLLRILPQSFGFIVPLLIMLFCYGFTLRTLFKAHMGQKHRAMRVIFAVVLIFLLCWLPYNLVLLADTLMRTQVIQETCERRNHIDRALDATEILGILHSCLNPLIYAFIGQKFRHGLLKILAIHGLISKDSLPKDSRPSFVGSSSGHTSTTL

CALCR-RAMP3 = target: T4, CALCR-RAMP3 (UniProt P30988)
T4 sequence (looked up) 1: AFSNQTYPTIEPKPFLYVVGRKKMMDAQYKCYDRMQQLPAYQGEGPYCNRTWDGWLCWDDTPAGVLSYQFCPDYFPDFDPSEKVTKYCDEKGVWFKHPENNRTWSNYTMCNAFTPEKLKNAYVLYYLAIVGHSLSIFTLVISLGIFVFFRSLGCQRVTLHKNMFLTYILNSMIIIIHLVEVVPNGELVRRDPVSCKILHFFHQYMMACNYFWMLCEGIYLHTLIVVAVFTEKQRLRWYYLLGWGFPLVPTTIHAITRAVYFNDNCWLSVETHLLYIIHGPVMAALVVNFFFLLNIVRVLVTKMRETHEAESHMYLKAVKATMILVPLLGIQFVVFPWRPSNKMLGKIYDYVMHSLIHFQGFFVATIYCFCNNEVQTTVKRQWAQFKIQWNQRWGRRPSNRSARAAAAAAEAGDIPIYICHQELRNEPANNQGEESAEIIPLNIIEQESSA
T4 sequence (looked up) 2: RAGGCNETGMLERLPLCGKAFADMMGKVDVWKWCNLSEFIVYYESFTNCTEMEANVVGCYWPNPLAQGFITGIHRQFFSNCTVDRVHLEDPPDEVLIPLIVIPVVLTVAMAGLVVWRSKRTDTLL

CALCR = target: T5, CALCR (UniProt P30988)
T5 sequence (looked up): T4 sequence (looked up) 1

CALCR-RAMP2 = CALCR-RAMP2 (UniProt P30988)
GPR1 = GPR1 (UniProt P46091)
Chain of GPR1 (P46091 whole entry): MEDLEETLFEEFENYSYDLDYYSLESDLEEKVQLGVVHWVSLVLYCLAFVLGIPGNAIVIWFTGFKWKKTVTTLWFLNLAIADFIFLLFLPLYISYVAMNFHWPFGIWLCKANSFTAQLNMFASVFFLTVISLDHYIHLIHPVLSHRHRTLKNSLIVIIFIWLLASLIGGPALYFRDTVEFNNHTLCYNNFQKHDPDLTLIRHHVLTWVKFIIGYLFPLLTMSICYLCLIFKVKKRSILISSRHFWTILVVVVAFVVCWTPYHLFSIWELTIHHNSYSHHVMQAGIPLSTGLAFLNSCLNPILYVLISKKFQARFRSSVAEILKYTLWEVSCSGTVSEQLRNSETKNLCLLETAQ

C5L2 = C5L2 (UniProt Q9P296)
C5aR1 = C5aR1 (UniProt P21730)
CX3CR1 = CX3CR1 (UniProt P49238)
GIPR = GIPR (UniProt P48546)
Chain of GIPR (P48546 22-466 limits assumed): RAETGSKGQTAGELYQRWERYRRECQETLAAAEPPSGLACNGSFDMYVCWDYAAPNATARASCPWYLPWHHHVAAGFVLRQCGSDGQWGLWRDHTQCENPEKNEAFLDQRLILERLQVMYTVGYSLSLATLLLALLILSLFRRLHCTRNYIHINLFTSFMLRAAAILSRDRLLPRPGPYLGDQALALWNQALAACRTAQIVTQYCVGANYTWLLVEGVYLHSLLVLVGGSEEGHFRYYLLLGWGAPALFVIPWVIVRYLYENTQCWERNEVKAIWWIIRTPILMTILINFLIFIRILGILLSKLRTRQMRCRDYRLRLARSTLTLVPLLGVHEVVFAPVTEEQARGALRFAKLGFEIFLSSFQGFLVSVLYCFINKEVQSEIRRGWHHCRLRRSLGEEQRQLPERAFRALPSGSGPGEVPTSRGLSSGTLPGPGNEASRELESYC

GLP2R = GLP2R (UniProt O95838)
Chain of GLP2R (O95838 whole entry): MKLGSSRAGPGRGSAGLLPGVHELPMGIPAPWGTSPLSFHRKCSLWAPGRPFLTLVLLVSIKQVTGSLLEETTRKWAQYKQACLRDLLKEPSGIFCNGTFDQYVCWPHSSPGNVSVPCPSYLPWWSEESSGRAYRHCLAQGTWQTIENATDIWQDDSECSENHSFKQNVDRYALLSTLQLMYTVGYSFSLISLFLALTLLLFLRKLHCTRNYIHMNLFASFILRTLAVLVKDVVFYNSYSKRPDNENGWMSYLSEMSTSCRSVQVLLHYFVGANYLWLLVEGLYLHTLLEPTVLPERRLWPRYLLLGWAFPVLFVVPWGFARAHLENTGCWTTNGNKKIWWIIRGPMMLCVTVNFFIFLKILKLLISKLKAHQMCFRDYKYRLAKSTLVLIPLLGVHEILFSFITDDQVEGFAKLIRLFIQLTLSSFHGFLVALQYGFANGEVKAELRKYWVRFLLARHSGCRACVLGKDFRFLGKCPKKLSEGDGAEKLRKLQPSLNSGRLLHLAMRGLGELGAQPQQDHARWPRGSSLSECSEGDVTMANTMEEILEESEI

GRPR = GRPR (UniProt P30550)
GALR2 = target: T6, GALR2 (UniProt O43603)
T6 sequence (looked up): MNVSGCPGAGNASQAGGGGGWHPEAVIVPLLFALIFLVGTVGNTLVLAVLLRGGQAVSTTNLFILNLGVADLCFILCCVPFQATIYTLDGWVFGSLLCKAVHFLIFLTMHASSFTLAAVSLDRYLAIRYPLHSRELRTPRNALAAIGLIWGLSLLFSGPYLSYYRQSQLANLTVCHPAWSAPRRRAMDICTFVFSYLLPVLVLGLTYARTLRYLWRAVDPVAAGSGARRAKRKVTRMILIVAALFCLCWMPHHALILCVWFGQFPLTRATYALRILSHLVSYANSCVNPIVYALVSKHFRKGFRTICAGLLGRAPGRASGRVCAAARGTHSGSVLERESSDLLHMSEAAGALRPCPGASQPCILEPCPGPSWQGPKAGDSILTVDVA

KISS1R = KISS1R (UniProt Q969F8)
Chain of KISS1R (Q969F8 whole entry): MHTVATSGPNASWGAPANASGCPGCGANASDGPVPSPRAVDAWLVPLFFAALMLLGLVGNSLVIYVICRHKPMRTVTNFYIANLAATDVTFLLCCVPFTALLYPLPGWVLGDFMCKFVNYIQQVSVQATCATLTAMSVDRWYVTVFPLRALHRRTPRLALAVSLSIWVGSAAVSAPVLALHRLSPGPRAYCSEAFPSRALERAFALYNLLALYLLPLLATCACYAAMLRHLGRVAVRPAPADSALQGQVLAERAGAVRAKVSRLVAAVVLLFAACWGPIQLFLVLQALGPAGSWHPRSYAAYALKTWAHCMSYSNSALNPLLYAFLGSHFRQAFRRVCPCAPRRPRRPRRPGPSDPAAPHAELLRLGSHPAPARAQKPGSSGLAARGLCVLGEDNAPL

BDKRB1 = BDKRB1 (UniProt P46663)
Chain of BDKRB1 (P46663 whole entry): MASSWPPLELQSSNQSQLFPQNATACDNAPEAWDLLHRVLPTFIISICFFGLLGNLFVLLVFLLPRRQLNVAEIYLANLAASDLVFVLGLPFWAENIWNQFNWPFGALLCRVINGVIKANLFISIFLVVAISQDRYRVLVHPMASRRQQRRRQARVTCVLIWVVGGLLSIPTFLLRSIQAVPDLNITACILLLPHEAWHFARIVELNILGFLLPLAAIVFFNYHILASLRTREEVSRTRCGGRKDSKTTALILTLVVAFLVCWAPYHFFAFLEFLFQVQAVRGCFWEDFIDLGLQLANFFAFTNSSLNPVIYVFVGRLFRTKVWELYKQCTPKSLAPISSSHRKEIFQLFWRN

MLNR = MLNR (UniProt O43193)
HCRTR2 = HCRTR2 (UniProt O43614)
OXTR = OXTR (UniProt P30559)
Chain of OXTR (P30559 whole entry): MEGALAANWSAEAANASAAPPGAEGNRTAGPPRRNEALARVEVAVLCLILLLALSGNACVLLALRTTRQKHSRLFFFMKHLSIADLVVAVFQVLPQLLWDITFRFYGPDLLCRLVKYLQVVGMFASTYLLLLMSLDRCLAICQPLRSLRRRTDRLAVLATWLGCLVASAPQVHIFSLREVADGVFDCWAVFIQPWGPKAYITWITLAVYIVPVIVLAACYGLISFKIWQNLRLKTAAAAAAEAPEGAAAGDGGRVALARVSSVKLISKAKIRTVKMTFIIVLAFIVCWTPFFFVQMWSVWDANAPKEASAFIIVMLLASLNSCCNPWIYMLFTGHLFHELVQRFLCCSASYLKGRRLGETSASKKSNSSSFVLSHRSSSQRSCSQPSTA

NPY1R = NPY1R (UniProt P25929)
Chain of NPY1R (P25929 whole entry): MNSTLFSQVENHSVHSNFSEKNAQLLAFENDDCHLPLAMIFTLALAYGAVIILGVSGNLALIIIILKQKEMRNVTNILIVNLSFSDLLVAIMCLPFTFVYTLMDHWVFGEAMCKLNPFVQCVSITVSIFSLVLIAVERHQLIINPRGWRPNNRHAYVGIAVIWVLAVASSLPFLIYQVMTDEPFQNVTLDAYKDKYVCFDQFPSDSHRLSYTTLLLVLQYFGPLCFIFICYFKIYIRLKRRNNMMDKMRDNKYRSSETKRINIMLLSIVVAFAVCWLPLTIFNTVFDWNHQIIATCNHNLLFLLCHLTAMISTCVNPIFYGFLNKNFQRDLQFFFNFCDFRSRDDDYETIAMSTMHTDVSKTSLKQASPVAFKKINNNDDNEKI

PRLHR = PRLHR (UniProt P49683)
[1] = target: relaxin-3 receptor (RXFP3) (UniProt Q9NSD7)
SCTR = SCTR (UniProt P47872)
Chain of SCTR (P47872 23-440 limits assumed): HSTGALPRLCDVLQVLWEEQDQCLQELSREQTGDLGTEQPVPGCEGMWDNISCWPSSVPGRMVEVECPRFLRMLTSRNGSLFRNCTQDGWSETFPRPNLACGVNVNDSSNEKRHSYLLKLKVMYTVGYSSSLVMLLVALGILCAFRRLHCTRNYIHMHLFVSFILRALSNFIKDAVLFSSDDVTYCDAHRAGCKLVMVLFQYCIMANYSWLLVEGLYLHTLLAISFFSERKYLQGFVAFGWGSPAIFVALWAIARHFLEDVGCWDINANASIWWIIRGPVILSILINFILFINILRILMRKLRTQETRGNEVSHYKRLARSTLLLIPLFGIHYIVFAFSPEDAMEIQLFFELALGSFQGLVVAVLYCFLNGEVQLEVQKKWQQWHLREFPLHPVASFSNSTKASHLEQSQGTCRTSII

BRS3 = BRS3 (UniProt P32247)
TRHR = TRHR (UniProt P34981)
VIPR1 = VIPR1 (UniProt P32241)
Chain of VIPR1 (P32241 31-457 limits assumed): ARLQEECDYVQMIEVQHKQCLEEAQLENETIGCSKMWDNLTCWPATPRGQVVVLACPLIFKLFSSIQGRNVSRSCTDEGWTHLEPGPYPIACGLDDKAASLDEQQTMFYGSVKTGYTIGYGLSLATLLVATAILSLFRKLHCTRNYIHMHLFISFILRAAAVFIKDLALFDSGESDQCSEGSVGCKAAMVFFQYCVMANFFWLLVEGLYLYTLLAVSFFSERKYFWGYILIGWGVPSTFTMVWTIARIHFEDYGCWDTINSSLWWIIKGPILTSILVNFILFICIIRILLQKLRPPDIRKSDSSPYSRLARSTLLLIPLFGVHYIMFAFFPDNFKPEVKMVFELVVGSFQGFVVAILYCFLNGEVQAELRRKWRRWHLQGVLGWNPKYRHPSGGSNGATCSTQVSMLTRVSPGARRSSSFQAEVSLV

Chain of Complement C5a (P01031 678-751 limits assumed): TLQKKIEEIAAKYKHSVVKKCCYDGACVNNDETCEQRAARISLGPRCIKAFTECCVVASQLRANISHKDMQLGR
Chain of CCL3 (P10147 24-92 limits assumed): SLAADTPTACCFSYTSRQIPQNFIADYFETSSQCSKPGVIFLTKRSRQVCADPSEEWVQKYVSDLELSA
Chain of CXCL8 (P10145 28-99 limits assumed): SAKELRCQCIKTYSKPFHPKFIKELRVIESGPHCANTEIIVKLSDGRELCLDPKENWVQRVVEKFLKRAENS
Chain of Calcitonin (P01258 85-116 limits assumed): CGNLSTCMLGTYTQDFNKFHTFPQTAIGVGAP
Chain of Galanin (P22466 33-62 limits assumed): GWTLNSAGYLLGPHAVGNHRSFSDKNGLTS
Chain of CCL20 (P78556 27-96 limits assumed): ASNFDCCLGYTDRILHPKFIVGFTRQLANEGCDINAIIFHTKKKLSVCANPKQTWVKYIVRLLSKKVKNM

Substance: Bradykinin (from UniProt P01042 381-389) (peptide)
EC50 (RC50), arrestin, agonist mode (BDKRB2): 5.57 nM | EC80, arrestin, agonist mode (BDKRB2): 9.82 nM

EC50 (RC50), arrestin, agonist mode (CCR2): 2.63 nM | EC80, arrestin, agonist mode (CCR2): 6.92 nM
Substance: CCL2 (from UniProt P13500 24-99) (ligand)

EC50 (RC50), arrestin, agonist mode (CCR5): 7.55 nM | EC80, arrestin, agonist mode (CCR5): 30.3 nM | EC50 (RC50), arrestin, agonist mode (CCR1): 1.04 nM | EC80, arrestin, agonist mode (CCR1): 2.53 nM
Substance: CCL3 (from UniProt P10147 24-92) (ligand)

EC50 (RC50), arrestin, agonist mode (CCR3): 40.6 nM | EC80, arrestin, agonist mode (CCR3): 140 nM
Substance: CCL13 (from UniProt Q99616 24-98) (ligand)

EC50 (RC50), arrestin, agonist mode (CCR7): 5.65 nM | EC80, arrestin, agonist mode (CCR7): 19 nM
Substance: CCL19 (from UniProt Q99731 22-98) (ligand)

EC50 (RC50), arrestin, agonist mode (CCR6): 2.95 nM | EC80, arrestin, agonist mode (CCR6): 14.3 nM
Substance: CCL20 (from UniProt P78556 27-96) (ligand)

EC50 (RC50), arrestin, agonist mode (CCR9): 173 nM | EC80, arrestin, agonist mode (CCR9): 370 nM
Substance: CCL25 (from UniProt O15444 24-150) (ligand)

EC50 (RC50), arrestin, agonist mode (CXCR1): 2.8 nM | EC80, arrestin, agonist mode (CXCR1): 14.8 nM | EC50 (RC50), arrestin, agonist mode (CXCR2): 0.304 nM | EC80, arrestin, agonist mode (CXCR2): 0.968 nM
Substance: CXCL8 (from UniProt P10145 28-99) (ligand)

EC80, arrestin, agonist mode (CALCR-RAMP3): 384 nM | EC80, arrestin, agonist mode (CALCR): 72.9 nM | EC80, arrestin, agonist mode (CALCR-RAMP2): 33.7 nM
Substance: Calcitonin (from UniProt P01258 85-116) (peptide)

EC50 (RC50), arrestin, agonist mode (GPR1): 2.26 nM | EC80, arrestin, agonist mode (GPR1): 4.67 nM
Substance: Chemerin (from UniProt Q99969 21-157) (ligand)

EC50 (RC50), arrestin, agonist mode (C5L2): 1.57 nM | EC80, arrestin, agonist mode (C5L2): 2.7 nM | EC50 (RC50), arrestin, agonist mode (C5aR1): 1.38 nM | EC80, arrestin, agonist mode (C5aR1): 3.64 nM
Substance: Complement C5a (from UniProt P01031 678-751) (ligand)

EC50 (RC50), arrestin, agonist mode (CX3CR1): 0.444 nM | EC80, arrestin, agonist mode (CX3CR1): 1.45 nM
Substance: Fractalkine (from UniProt P78423 25-100) (ligand)

EC50 (RC50), arrestin, agonist mode (GIPR): 4.87 nM | EC80, arrestin, agonist mode (GIPR): 18.5 nM
Substance: GIP (from UniProt P09681 52-93) (peptide)

EC50 (RC50), arrestin, agonist mode (GLP2R): 2.3 nM | EC80, arrestin, agonist mode (GLP2R): 8.97 nM
Substance: GLP II (1-33) (from UniProt P01275 21-180) (peptide)

EC50 (RC50), arrestin, agonist mode (GRPR): 1.62 nM | EC80, arrestin, agonist mode (GRPR): 5.92 nM
Substance: GRP (from UniProt P07492 24-50) (peptide)

EC50 (RC50), arrestin, agonist mode (GALR2): 6.81 nM | EC80, arrestin, agonist mode (GALR2): 12.2 nM
Substance: Galanin (from UniProt P22466 33-62) (peptide)

EC50 (RC50), arrestin, agonist mode (KISS1R): 17.6 nM | EC80, arrestin, agonist mode (KISS1R): 37.6 nM
Substance: Kisspeptin-10 (from UniProt Q15726 112-121) (peptide)

EC50 (RC50), arrestin, agonist mode (BDKRB1): 3.65 nM | EC80, arrestin, agonist mode (BDKRB1): 14 nM
Substance: LDA-Bradykinin (peptide)

EC50 (RC50), arrestin, agonist mode (MLNR): 1.59 nM | EC80, arrestin, agonist mode (MLNR): 5.63 nM
Substance: Motilin (from UniProt P12872 26-47) (peptide)

EC50 (RC50), arrestin, agonist mode (HCRTR2): 18.2 nM | EC80, arrestin, agonist mode (HCRTR2): 42.5 nM
Substance: Orexin A (from UniProt O43612 34-66) (peptide)

EC50 (RC50), arrestin, agonist mode (OXTR): 3.23 nM | EC80, arrestin, agonist mode (OXTR): 7.19 nM
Substance: Oxytocin (from UniProt P01178 20-28) (peptide)

EC50 (RC50), arrestin, agonist mode (NPY1R): 3.93 nM | EC80, arrestin, agonist mode (NPY1R): 12.4 nM
Substance: Peptide YY (from UniProt P10082 29-64)

EC80, arrestin, agonist mode (PRLHR): 10.7 nM
Substance: PrRP-31 (from UniProt P81277 23-53) (peptide)

EC50 (RC50), arrestin, agonist mode [1]: 11.9 nM | EC80, arrestin, agonist mode [1]: 62.5 nM
Substance: Relaxin-3 (from UniProt Q8WXF3 26-142; Q8WXF3 26-142) (ligand)

EC50 (RC50), arrestin, agonist mode (SCTR): 1.74 nM | EC80, arrestin, agonist mode (SCTR): 9.2 nM
Substance: Secretin (from UniProt P09683 28-54) (peptide)

EC50 (RC50), arrestin, agonist mode (BRS3): 1.24 nM | EC80, arrestin, agonist mode (BRS3): 3.73 nM
Substance: TAPN-Bombesin (peptide)

EC50 (RC50), arrestin, agonist mode (TRHR): 2.02 nM | EC80, arrestin, agonist mode (TRHR): 7.14 nM
Substance: TRH (from UniProt P20396 84-86) (peptide)

EC50 (RC50), arrestin, agonist mode (VIPR1): 1.73 nM | EC80, arrestin, agonist mode (VIPR1): 3.69 nM
Substance: VIP (from UniProt P01282 125-152) (peptide)
